T1: human NaPi2a (human, UniProt Q06495 1-639)
T1 construct: whole, on cells; also called Hu NaPi2a; SLC34A1
T1 sequence (looked up): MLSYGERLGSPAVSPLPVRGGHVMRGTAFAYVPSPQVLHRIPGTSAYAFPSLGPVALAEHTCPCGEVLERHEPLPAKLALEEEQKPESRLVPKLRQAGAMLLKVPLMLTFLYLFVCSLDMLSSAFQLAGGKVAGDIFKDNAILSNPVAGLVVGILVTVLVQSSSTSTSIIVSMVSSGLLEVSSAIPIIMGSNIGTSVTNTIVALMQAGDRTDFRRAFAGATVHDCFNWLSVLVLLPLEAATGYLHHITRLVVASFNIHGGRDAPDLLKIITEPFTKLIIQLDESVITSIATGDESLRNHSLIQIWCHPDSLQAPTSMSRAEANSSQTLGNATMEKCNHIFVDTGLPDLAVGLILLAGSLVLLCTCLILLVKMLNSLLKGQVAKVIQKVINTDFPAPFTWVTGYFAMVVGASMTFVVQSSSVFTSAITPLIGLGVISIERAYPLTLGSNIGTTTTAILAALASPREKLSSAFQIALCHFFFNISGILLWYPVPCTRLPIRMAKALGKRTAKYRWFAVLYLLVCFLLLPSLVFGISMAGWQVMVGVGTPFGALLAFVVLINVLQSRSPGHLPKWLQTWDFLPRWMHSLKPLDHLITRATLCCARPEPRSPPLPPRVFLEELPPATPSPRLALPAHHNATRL

T2: human sodium-dependent phosphate transporter 2B (NaPi2b) (human, UniProt O95436 1-690)
T2 construct: UniProt ID is given as 095436 [sic]; also called hNaPi2b; Hu NaPi2b
T2 sequence: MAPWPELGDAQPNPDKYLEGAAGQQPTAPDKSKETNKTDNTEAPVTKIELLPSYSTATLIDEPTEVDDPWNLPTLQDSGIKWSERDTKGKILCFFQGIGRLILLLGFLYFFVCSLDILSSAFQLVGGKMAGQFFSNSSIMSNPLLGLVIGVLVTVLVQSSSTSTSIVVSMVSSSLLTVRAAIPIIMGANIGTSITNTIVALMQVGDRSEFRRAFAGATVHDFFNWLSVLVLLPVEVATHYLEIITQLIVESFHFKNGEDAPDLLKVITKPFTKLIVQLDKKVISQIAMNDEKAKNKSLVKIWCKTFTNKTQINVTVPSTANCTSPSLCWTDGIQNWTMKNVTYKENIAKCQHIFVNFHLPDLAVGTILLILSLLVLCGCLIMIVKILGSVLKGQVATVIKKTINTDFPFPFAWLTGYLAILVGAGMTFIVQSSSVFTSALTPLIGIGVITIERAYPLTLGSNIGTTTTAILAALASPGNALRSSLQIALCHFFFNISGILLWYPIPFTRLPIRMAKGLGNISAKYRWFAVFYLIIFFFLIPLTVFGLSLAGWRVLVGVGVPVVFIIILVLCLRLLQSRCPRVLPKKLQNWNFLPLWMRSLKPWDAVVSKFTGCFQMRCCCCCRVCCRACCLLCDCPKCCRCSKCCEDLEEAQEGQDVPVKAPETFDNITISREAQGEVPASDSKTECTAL

T3: cynomolgus monkey NaPi2b (cynomolgus monkey, UniProt O95436 1-690 (human entry))
T3 construct: also called Cyno NaPi2b; Cy NaPi2b
T3 chain: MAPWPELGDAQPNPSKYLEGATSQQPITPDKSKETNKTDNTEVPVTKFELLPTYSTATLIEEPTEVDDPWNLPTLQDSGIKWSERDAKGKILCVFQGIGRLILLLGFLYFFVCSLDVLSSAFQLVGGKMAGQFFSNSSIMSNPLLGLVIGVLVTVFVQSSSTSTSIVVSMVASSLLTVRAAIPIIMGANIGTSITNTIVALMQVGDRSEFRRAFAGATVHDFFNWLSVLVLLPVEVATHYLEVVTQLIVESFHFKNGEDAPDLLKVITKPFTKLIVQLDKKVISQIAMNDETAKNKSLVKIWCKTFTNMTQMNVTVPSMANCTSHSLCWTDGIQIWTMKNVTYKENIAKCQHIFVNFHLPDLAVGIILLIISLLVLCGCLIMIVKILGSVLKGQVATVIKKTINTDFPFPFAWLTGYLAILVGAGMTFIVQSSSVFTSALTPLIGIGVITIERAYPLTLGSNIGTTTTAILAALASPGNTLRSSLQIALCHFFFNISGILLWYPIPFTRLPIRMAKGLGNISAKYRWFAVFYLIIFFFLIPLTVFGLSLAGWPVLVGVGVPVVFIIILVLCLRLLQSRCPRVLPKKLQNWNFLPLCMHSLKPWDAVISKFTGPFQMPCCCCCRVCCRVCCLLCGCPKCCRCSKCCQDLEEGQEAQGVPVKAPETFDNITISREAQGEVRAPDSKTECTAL


Key:
human NaPi2a = molecular target: T1, human NaPi2a; assay: flow cytometry on HEK293-6e cells transfected with human NaPi2a, 24 h at 4 C, anti-human IgG Fc AF647
[1] = molecular target: T2, human sodium-dependent phosphate …; assay: flow cytometry, HEK293-6e cells transfected with human NaPi2b
Procedure: (§1) Briefly, HEK293-6e cells were transfected for ~24 hours to transiently express human NaPi2b, cynomolgus or mouse NaPi2b, at 1 μg of DNA per 1 million cells. Following transfection, 50,000 cells per well were seeded in V-bottom 96-well plates and incubated with 200 nM of primary antibody for 18-24 hours at 4° C. to prevent internalization. […] Following staining and washing, fluorescence was detected by flow cytometry on BD LSRFortessa™ Cell Analyzer (BD Biosciences, Franklin Lake, NJ) with 10,000 minimum events collected per well. The AF647/APC-A GeoMean (fluorescence signal geometric mean, proportional to anti-Human AF647 binding) was calculated for the live singlet cell population for each primary antibody using FlowJo™ v8 software (BD Biosciences, Franklin Lake, NJ). The Bmax and Kd of each primary antibody were calculated using GraphPad Prism Version 9 (GraphPad Software, San Diego, CA)

cynomolgus monkey NaPi2b [2] = molecular target: T3, cynomolgus monkey NaPi2b; assay: flow cytometry, HEK293-6e cells transfected with cynomolgus NaPi2b
Procedure: as §1

cynomolgus monkey NaPi2b [3] = molecular target: T3, cynomolgus monkey NaPi2b; assay: flow cytometry, HEK293-6e cells transfected with cynomolgus NaPi2b; apparent Kd
Procedure: as §1

| Binder | binding result (human NaPi2a) | Bmax [1] | Bmax (cynomolgus monkey NaPi2b [2]) | Kd (cynomolgus monkey NaPi2b [3]) |
| --- | --- | --- | --- | --- |
| v22277 (palivizumab, anti-RSV negative control, heterodimeric Fc) (antibody, human IgG1, kappa, also called neg control) heavy 1: GQVTLRESGPALVKPTQTLTLTCTFSGFSLSTSGMSVGWIRQPPGKALEWLADIWWDDKKDYNPSLKSRLTISKDTSKNQVVLKVTNMDPADTATYYCARSMITNWYFDVWGAGTTVTVSSASTKGPSVFPLAPSSKSTSGGTAALGCLVKDYFPEPVTVSWNSGALTSGVHTFPAVLQSSGLYSLSSVVTVPSSSLGTQTYICNVNHKPSNTKVDKKVEPKSCDKTHTCPPCPAPELLGGPSVFLFPPKPKDTLMISRTPEVTCVVVDVSHEDPEVKFNWYVDGVEVHNAKTKPREEQYNSTYRVVSVLTVLHQDWLNGKEYKCKVSNKALPAPIEKTISKAKGQPREPQVYVYPPSRDELTKNQVSLTCLVKGFYPSDIAVEWESNGQPENNYKTTPPVLDSDGSFALVSKLTVDKSRWQQGNVFSCSVMHEALHNHYTQKSLSLSPG heavy 2: not shown light: GDIQMTQSPSTLSASVGDRVTITCKSQLSVGYMHWYQQKPGKAPKLLIYDTSKLASGVPSRFSGSGSGTEFTLTISSLQPDDFATYYCFQGSGYPFTFGGGTKLEIKRTVAAPSVFIFPPSDEQLKSGTASVVCLLNNFYPREAKVQWKVDNALQSGNSQESVTEQDSKDSTYSLSSTLTLSKADYEKHKVYACEVTHQGLSSPVTKSFNRGEC | no binding (tested: 200 nM) | – | – | – |
| v38591 (humanized anti-NaPi2b antibody, wild-type Fc) (antibody, human IgG1, kappa, also called v38591 Wild-type; H1L2) heavy: not shown light: DVQMTQSPSSLSASVGDRVTITCRASQDVYSYLNWYQQKPGKAVKLLIYYTSRLQSGVPSRFSGSGSGTDYTLTISSLQPEDFATYYCQQYNIFPWTFGQGTKLEIKRTVAAPSVFIFPPSDEQLKSGTASVVCLLNNFYPREAKVQWKVDNALQSGNSQESVTEQDSKDSTYSLSSTLTLSKADYEKHKVYACEVTHQGLSSPVTKSFNRGEC | no binding (tested: 200 nM) | – | – | – |
| v18993 (lifastuzumab), reference anti-NaPi2b antibody (antibody, human IgG1, kappa) heavy 1: GEVQLVESGGGLVQPGGSLRLSCAASGFSFSDFAMSWVRQAPGKGLEWVATIGRVAFHTYYPDSMKGRFTISRDNSKNTLYLQMNSLRAEDTAVYYCARHRGFDVGHFDFWGQGTLVTVSSASTKGPSVFPLAPSSKSTSGGTAALGCLVKDYFPEPVTVSWNSGALTSGVHTFPAVLQSSGLYSLSSVVTVPSSSLGTQTYICNVNHKPSNTKVDKKVEPKSCDKTHTCPPCPAPELLGGPSVFLFPPKPKDTLMISRTPEVTCVVVDVSHEDPEVKFNWYVDGVEVHNAKTKPREEQYNSTYRVVSVLTVLHQDWLNGKEYKCKVSNKALPAPIEKTISKAKGQPREPQVYVYPPSRDELTKNQVSLTCLVKGFYPSDIAVEWESNGQPENNYKTTPPVLDSDGSFALVSKLTVDKSRWQQGNVFSCSVMHEALHNHYTQKSLSLSPG heavy 2: not shown light: GDIQMTQSPSSLSASVGDRVTITCRSSETLVHSSGNTYLEWYQQKPGKAPKLLIYRVSNRFSGVPSRFSGSGSGTDFTLTISSLQPEDFATYYCFQGSFNPLTFGQGTKVEIKRTVAAPSVFIFPPSDEQLKSGTASVVCLLNNFYPREAKVQWKVDNALQSGNSQESVTEQDSKDSTYSLSSTLTLSKADYEKHKVYACEVTHQGLSSPVTKSFNRGEC | no binding (tested: 200 nM) | 1610 | 1560 | 6.27 nM |
| v18992 (MX35), reference anti-NaPi2b antibody (antibody, human IgG1, kappa) heavy 1: GQVQLVQSGAEVVKPGASVKMSCKASGYTFTGYNIHWVKQAPGQGLEWIGAIYPGNGDTSYKQKFRGRATLTADTSTSTVYMELSSLRSEDSAVYYCARGETARATFAYWGQGTLVTVSSASTKGPSVFPLAPSSKSTSGGTAALGCLVKDYFPEPVTVSWNSGALTSGVHTFPAVLQSSGLYSLSSVVTVPSSSLGTQTYICNVNHKPSNTKVDKKVEPKSCDKTHTCPPCPAPELLGGPSVFLFPPKPKDTLMISRTPEVTCVVVDVSHEDPEVKFNWYVDGVEVHNAKTKPREEQYNSTYRVVSVLTVLHQDWLNGKEYKCKVSNKALPAPIEKTISKAKGQPREPQVYVYPPSRDELTKNQVSLTCLVKGFYPSDIAVEWESNGQPENNYKTTPPVLDSDGSFALVSKLTVDKSRWQQGNVFSCSVMHEALHNHYTQKSLSLSPG heavy 2: not shown light: GDIQMTQSPSSLSASVGDRVTITCSASQDIGNFLNWYQQKPGKTVKVLIYYTSSLYSGVPSRFSGSGSGTDYTLTISSLQPEDFATYYCQQYSKLPLTFGQGTKLELKRTVAAPSVFIFPPSDEQLKSGTASVVCLLNNFYPREAKVQWKVDNALQSGNSQESVTEQDSKDSTYSLSSTLTLSKADYEKHKVYACEVTHQGLSSPVTKSFNRGEC | no binding (tested: 200 nM) | 1900 | 2360 | 31 nM |

Reference: patent US20260232827A1 (Zymeworks, published 2026)
